Assay results published in patent US20220073599A1 (Hoffmann-La Roche, published 2022).
Changes are numbered by the printed parent chain.

T1: human VEGFA-121-His (human, UniProt P15692 181-395)
T1 construct: Prepared in-house; not shown: His tag
T1 sequence: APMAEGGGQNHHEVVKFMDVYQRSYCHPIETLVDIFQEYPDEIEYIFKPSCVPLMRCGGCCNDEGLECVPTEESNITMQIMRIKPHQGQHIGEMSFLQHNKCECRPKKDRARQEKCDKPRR

T2: Mouse ANG2 (mouse, UniProt O35608 275-496, limits assumed)
T2 construct: domain: RBD; also called mouse Ang2-RBD
T2 sequence (looked up): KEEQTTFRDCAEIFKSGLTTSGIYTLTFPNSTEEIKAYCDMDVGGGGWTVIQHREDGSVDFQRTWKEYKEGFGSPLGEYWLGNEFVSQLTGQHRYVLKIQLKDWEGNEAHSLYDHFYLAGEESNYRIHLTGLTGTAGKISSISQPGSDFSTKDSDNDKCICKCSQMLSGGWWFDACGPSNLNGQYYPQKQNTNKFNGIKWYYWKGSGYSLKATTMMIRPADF

T3: Pig ANG2 (pig, UniProt Q9BDY7 275-496, limits assumed)
T3 construct: domain: RBD; also called pig Ang2-RBD
T3 sequence (looked up): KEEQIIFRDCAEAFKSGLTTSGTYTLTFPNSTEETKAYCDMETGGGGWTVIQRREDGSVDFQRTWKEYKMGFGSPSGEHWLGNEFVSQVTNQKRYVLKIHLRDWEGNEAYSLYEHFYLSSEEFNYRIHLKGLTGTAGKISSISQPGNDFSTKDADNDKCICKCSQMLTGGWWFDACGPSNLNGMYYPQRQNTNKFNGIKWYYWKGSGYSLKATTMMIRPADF

T4: human Ang2-RBD (human, UniProt O15123 275-496, limits assumed)
T4 construct: also called Human ANG2 (SPR); Angiopoietin 2-RBD
T4 sequence: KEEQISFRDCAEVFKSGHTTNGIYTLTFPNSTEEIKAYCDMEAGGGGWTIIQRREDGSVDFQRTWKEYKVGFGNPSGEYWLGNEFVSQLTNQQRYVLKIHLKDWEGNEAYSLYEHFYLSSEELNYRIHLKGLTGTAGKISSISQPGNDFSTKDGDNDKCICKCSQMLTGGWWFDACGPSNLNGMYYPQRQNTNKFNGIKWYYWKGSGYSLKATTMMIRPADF

T5: Cyno ANG2 (cyno, UniProt A0A2K5VNX6 281-496)
T5 construct: domain: RBD; also called cyno Ang2-RBD
T5 sequence: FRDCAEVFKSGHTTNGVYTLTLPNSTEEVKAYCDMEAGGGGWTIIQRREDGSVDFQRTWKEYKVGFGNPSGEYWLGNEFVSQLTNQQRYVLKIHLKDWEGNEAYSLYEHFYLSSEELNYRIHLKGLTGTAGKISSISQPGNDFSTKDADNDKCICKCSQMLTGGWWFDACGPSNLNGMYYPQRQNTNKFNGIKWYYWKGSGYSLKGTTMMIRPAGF

B1: bispecific anti-VEGF-A/anti-ANG2 Fab fragment P1AD9820 (Fab, V domains shown)
VH: SEHLVESGGGLVKPGGSLRLSCATADFFEYDDMSWVRQAPGKGLEWVGSISPKGDHKYLNTKFIGRFTISRDDSKNTLYLQMNSLRAEDTAVYYCARDVGFFDWWGQGTLVTVSS
VL: AIYMHQEPSSLSASVGDRVTITCHGSYWLNSEVAWYQQKPGKAPKLLIFDGDFKVYEVPSRFSGSGSHEDYTLTISSLQPEDFATYYCQQYRYHPYTFGHGTKVEIKR
notes: Bispecific Fab with two paratopes in one VH/VL pair; also called P1AD9820 Fab
B2: bispecific anti-VEGF-A/anti-ANG2 Fab fragment P1AA8906 (Fab, V domains shown)
VH: DFQLVESGGGLVKPGGSLRLSCAASYEFEYDDMSWVRQAPGKGLEWVGSISPKGGSTYYNTKFIGRFTISRDNSKNTLYLQMNSLRAEDTAVYYCARDVGFFDMWGQGTLVTVSS
VL: B1 VL with N30S, S31N, E32Y, V33L, G51A, D52R, F53W, K54L, Y56H, E57G
notes: Bispecific Fab with two paratopes in one VH/VL pair (DutaFab); CH1 and Ckappa

Tests used:
human VEGFA-121-His [1] = molecular target: T1, human VEGFA-121-His; assay: SPR, VEGF-A121-His captured by anti-His antibody, Fab injected, single cycle kinetics; marked outside of Biacore specification; exponent as printed
Description: (§1) An anti-His capturing antibody (GE Healthcare 28995056) was immobilized to a Series S Sensor Chip C1 (GE Healthcare BR100535) using standard amine coupling chemistry resulting in a surface density of approximately 600 resonance units (RU). As running and dilution buffer, HBS-P+ (10 mM HEPES, 150 mM NaCl pH 7.4, 0.05% Surfactant P20) was used. […] A dilution series of the tested antibody (3.7-300 nM, 1:3 dilution) was successively injected for 60 s each, dissociation was monitored for 3600 s at a flow rate of 30 μl/min (single cycle kinetics). The surface was regenerated by injecting 10 mM Glycine pH 1.5 for 60 s at a flow of 5 μl/min. […] Curve fitting was performed using the 1:1 Langmuir binding model within the Biacore® evaluation software.
Binding kinetics to human VEGF-A and human ANG2 for the candidate antibodies were assessed as described above using the indicated Fab fragments (amino acid sequence as illustrated in Table 4).

Mouse ANG2 = molecular target: T2, Mouse ANG2; assay: SPR crossreactivity set-up, Fab captured by anti-Fab antibody, Ang2-RBD injected, 25 C
Description: (§2) An anti-Fab capturing antibody (GE Healthcare 28958325) was immobilized to a Series S Sensor Chip C1 (GE Healthcare BR100535) using standard amine coupling chemistry resulting in a surface density of approximately 800 resonance units (RU). As running and dilution buffer, HBS-P+ (10 mM HEPES, 150 mM NaCl pH 7.4, 0.05% Surfactant P20) was used, the temperature of measurement was 25° C. The tested antibody was captured by injecting a 50 nM solution for 60 sec at a flow of 5 μl/min. Association was measured by injection of Ang2-RBD from the indicated species in various concentrations in solution for 180 sec at a flow of 30 μl/min (0.07 nM-50 nM, 1:3 dilution). The dissociation phase was monitored for up to 600 sec and triggered by switching from the sample solution to running buffer at a flow rate of 30 μl/min. The surface was regenerated by injection of 10 mM Glycine pH 2.1 for 60 s at a flow rate of 30 μl/min. Bulk refractive index differences were corrected by subtracting blank injections and by subtracting the response obtained from the reference flow cell without captured antibody. Curve fitting was performed using the 1:1 Langmuir binding model within the Biacore® evaluation software.
(§3) Crossreactivity to VEGF-A and ANG2 from other species was assessed as described above in “Materials & general methods” section.

Pig ANG2 = molecular target: T3, Pig ANG2; assay: as above
Description: as §2, §3

human Ang2-RBD = molecular target: T4, human Ang2-RBD; assay: as above
Description: as §2, §3

Cyno ANG2 = molecular target: T5, Cyno ANG2; assay: as above
Description: as §2, §3

human VEGFA-121-His [2] = molecular target: T1, human VEGFA-121-His; assay: SPR, VEGF-A121-His captured by anti-His antibody, Fab injected, single cycle kinetics
Description: as §1

| Binder | koff (human VEGFA-121-His [1]) [s⁻¹] | Kd (Mouse ANG2) [pM] | koff (Mouse ANG2) [s⁻¹] | kon (Mouse ANG2) [M⁻¹ s⁻¹] | t1/2 (Mouse ANG2) [h] | Kd (Pig ANG2) [pM] | koff (Pig ANG2) [s⁻¹] | kon (Pig ANG2) [M⁻¹ s⁻¹] | t1/2 (Pig ANG2) [h] | Kd (human Ang2-RBD) [pM] | koff (human Ang2-RBD) [s⁻¹] | kon (human Ang2-RBD) [M⁻¹ s⁻¹] | t1/2 (human Ang2-RBD) [h] | Kd (Cyno ANG2) [pM] | koff (Cyno ANG2) [s⁻¹] | kon (Cyno ANG2) [M⁻¹ s⁻¹] | t1/2 (Cyno ANG2) [h] | t1/2 (human VEGFA-121-His [2]) [h] |
| --- | --- | --- | --- | --- | --- | --- | --- | --- | --- | --- | --- | --- | --- | --- | --- | --- | --- | --- |
| B1 | 5.82e-06 | 92 | 0.000743 | 8.11e+06 | 0.267 | 13 | 0.000105 | 7.82e+06 | 1.83 | 3 | 2.64e-05 | 1.02e+07 | 7.28 | 2 | 1.56e-05 | 9.98e+06 | 12.3 | – |
| B2 | – | – | – | – | – | – | – | – | – | – | – | – | – | – | – | – | – | 42.5 |
